The data set has as its system T1, SbfI restriction endonuclease (R.SbfI) (Streptomyces species Bf-61).
T1 sequence: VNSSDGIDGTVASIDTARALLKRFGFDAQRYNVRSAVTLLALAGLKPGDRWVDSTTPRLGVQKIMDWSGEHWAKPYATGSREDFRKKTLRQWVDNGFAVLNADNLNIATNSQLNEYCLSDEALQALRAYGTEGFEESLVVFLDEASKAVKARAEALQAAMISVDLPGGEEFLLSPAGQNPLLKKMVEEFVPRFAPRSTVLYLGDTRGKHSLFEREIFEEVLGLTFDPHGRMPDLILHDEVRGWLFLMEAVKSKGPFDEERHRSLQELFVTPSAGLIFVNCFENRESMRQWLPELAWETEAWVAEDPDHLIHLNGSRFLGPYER
Kind of data set: cleavage_in_vitro. Particulars: recombinant cell extract, serial dilutions 1x to 1/64; yield more than about 10^5 units per gram wet E. coli cells; recognition sequence not given.

As to “lambda DNA (printed as "I DNA") restriction substrate”, the activity (U/g wet cells) is 100000.
